Results taken from patent US20050100540A1, “Platelet-activating factor acetylhydrolase” (priority 1993, published 2005).

How the values were obtained:
[1] = system: PAF mediated lung injury; test: Guinea pig model of acute respiratory distress syndrome (ARDS), BAL protein; format: in vivo; conditions: 2000 units 15 minutes before 400 ng/kg PAF infusion
Procedure: Base on the above observations, an ARDS model in guinea pigs % as developed. A cannula is placed into the jugular vein of anaesthetized male Hartly guinea pigs (approximately 350-400 grams) and PAF diluted in a 500 μl volume of phosphate buffered saline with 0.25% bovine serum albumin as a carrier (PBS-BSA) is infused over a 15 minute period of time at a total dosage ranging from 100-400 ng/kg. At various intervals following PAF infusion, animals are sacrificed and lung tissue is collected. In guinea pigs infused with PAF, dose dependent lung damage and inflammation is clearly evident by 15 minutes and continues to be present at 60 minutes. Neutrophils and red blood cells are present in the alveolar spaces of PAF treated guinea pigs but absent in control or sham infused animals. Evidence of epithelial cell damage is also evident and reminiscent of hyaline membrane formation in human ARDS patients.
Groups of guinea pigs were pretreated with either PAF-AH (2000 units in 500 μl) or 500 μl of the PAF-AH buffer only. Fifteen minutes later these guinea pigs were infused with 400 ng/kg PAF in a 500 μl volume, infused over a 15 minute period. In addition, a sham group of guinea pigs was infused with 500 μl of PBS-BSA. […] To determine protein concentration in the BAL, samples were diluted 1:10 in saline and the OD 280 was determined.

[2] = system: low and high density lipoproteins; test: Association with lipoproteins on incubation with DFP-treated human plasma; format: binding; conditions: human plasma previously treated with DFP
Description: An unusual feature of the native plasma PAF acetylhydrolase is that it is tightly associated with lipoproteins in circulation, and its catalytic efficiency is influenced by the lipoprotein environment. […] PAF-AH protects low density lipoproteins from modification under oxidizing conditions in vitro and may have such a role in vivo. Administration of PAF-AH is thus indicated for the suppression of the oxidation of lipoproteins in atherosclerotic plaques as well as to resolve inflammation.

[3] = PAF-AH activity of E. coli constructs with extended amino termini (lysate, media); format: biochemical; conditions: trp promoter
Procedure: PAF-AH activity in transfectant supernatants was determined by the method of Stafforini et al. (1990), supra, with the following modifications. Briefly, PAF-AH activity was determined by measuring the hydrolysis of ^3H-acetate from [acetyl-^3H) PAF (New England Nuclear, Boston, Mass.). The aqueous free ^3H-acetate was separated from labeled substrate by reversed-phase column chromatography over octadecylsilica gel cartridges (Baker Research Products, Phillipsburg, Pa.). Assays were carried out using 10 μl transfectant supernatant in 0.1M Hepes buffer, pH 7.2, in a reaction volume of 50 μl. A total of 50 pmoles of substrate were used per reaction with a ratio of 1:5 labeled: cold PAF. Reactions were incubated for 30 minutes at 37° C. and stopped by the addition of 40 μl of 10M acetic acid. The solution was then washed through the octadecylsilica gel cartridges which were then rinsed with 0.1M sodium acetate. The aqueous eluate from each sample was collected and counted in a liquid scintillation counter for one minute. Enzyme activity was expressed in counts per minute.
and encompassed the termination codon of sAH 406-3 and contained an EcoRV cloning site. PCR reactions were performed essentially as described in Example 3. The resulting PCR product was digested with XbaI and EcoRV and subcloned into a pBR322 vector containing the Trp promoter [deBoer et al., PNAS. 80:21-25 (1983)] immediately upstream of the cloning site. E. coli strain XL-1 Blue was transformed with the expression construct and cultured in L broth containing 100 μg/ml of carbenicillin. Transformants from overnight cultures were pelleted and resuspended in lysis buffer containing 50 mM Tris-HCl pH 7.5, 50 mM NaCl, 10 mM CHAPS, 1 mM EDTA, 100 μg/ml lysozyme, and 0.05 trypsin-inhibiting units (TIU)/ml Aprotinin. Following a 1 hour incubation on ice and sonication for 2 minutes, the lysates were assayed for PAF-AH activity by the method described in Example 4. E. coli transformed with the expression construct (designated trp AH) generated a product with PAF-AH activity.
Several E. coli expression constructs were also evaluated which produce PAF-AH with extended amino termini. The N-terminus of natural plasma PAF-AH was identified as Ile42 by amino acid sequencing (Example 2). […] Acids Res., 14:4683-4690 (1986)]. Presumably a more classical signal sequence (M1-A17) is recognized by the cellular secretion system, followed by endoproteolytic cleavage. The entire coding sequence for PAF-AH beginning at the initiating methionine (nucleotides 162 to 1487 of SEQ ID NO: 7) was engineered for expression in E. coli using the trp promoter. […] Another expression construct, beginning at Val18 (nucleotides 213 to-1487 of SEQ ID NO: 7), produced active PAF-AH at about one third the level of the original construct.

B1: PAF-AH: Recombinant human plasma platelet-activating factor acetylhydrolase (beginning at Ile42) expressed in E. coli from construct pUC trp AH (protein)
chain: IQVLMAAASFGQTKIPRGNGPYSVGCTDLMFDHTNKGTFLRLYYPSQDNDRLDTLWIPNKEYFWGLSKFLGTHWLMGNILRLLFGSMTTPANWNSPLRPGEKYPLVVFSHGLGAFRTLYSAIGIDLASHGFIVAAVEHRDRSASATYYFKDQSAAEIGDKSWLYLRTLKQEEETHIRNEQVRQRAKECSQALSLILDIDHGKPVKNALDLKFDMEQLKDSIDREKIAVIGHSFGGATVIQTLSEDQRFRCGIALDAWMFPLGDEVYSRIPQPLFFINSEYFQYPANIIKMKKCYSPDKERKMITIRGSVHQNFADFTFATGKIIGHMLKLKGDIDSNVAIDLSNKASLAFLQKHLGLHKDFDQWDCLIEGDDENLIPGTNINTTNQHIMLQNSSGIEKYN
BAL fluid protein concentration [1]: 1.13 ± 0.25 mg/mL | Association with lipoproteins [2]: associated with low and high density lipoproteins | PAF-AH activity, Lysate ([3]; E. coli lysate): 177.7 U/ml/OD600 | PAF-AH activity, Media ([3]; E. coli media): 0.030 U/ml/OD600
